According to patent US20120219547A1:

Legend:
[1] = biological target: recombinant human tumor necrosis factor-α (human) (UniProt P01375); assay: cell-based or functional assay
[2] = biological target: recombinant human tumor necrosis factor-α (human) (UniProt P01375); assay: SPR, Biacore X100; antibody captured by goat anti-human IgG Fc on CM5 chip, TNFα as analyte

Sequence of recombinant human tumor necrosis factor-α (human) (P01375 77-233 limits assumed): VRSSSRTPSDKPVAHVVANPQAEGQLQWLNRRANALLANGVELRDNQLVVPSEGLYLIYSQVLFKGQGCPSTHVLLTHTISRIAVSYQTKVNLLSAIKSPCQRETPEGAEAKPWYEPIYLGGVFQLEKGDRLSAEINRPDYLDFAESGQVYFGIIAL

Substance: Humira (adalimumab, purchased from Abbott Laboratories) (antibody)
- EC50(ng/mL), neutralization of TNFα killing effect on L929 cell [1]: 19.1 ng/mL
- IC50 (concentration at which 50% of the rhTNFα toxicity to L929 cells can be neutralized) [1]: 0.01 to 0.04 µg/mL
- Ka [2]: 9.3e+09 M⁻¹
- Kd [2]: 0.108 nM
